Measured values taken from US20150147316A1 (Seagen, published 2015).

What was measured:
cynomolgus CD33 = molecular target: T1, cynomolgus CD33 (cynomolgus); assay: flow cytometry on HEK293F cells expressing cyno CD33; competition with 1 nM AlexaFluor-647 m2H12 (methods paragraph 148)
T1 construct: Recombinant on transfected HEK293F cells; also called cyno CD33; cynoCD33
Description: (§1) Cells were centrifuged, washed 3 times with PBS, and resuspended in 125 μL of a PBS+1% BSA solution. Fluorescence was analyzed using a flow cytometer, and the percent of saturated fluorescent signal was used to determine percent labeled 2H12 mAb bound. The EC50 was extrapolated by fitting the data to a sigmoidal dose-response curve with variable slope.
(§2) Humanized heavy and light chains were paired with chimeric light and heavy chains (chimeric chains composed of murine variable regions and human constant regions) respectively. The humanized/chimeric hybrid variants of CD33 mAb were tested for binding to human CD33 expressed on the surface of HEL 92.1.7 AML cells (Table 5). Heavy chains HC and HI were selected for further study. Humanized antibodies were expressed representing permutations of humanized heavy chains HC and HI and humanized light chains LA, LE and LG and binding to cells expressing human or cynomolgus (cyno) CD33 was determined (Table 6). The HILG antibody (2H12 HILG) was selected as the humanized antibody that most closely resembled the binding characteristics of the murine CD33 mAb m2H12. The HILG antibody is referred to as the h2H12 antibody ([…] 2H12 antibody). The KD for m2H12, h2H12, and h2H12 with an S239C mutation (EU numbering) in the IgG1 heavy chain (referred to as h2H12EC, for engineered cysteine), was determined for human CD33 expressed as an endogenous protein in two AML cell lines or as a recombinant protein in a HEK293F cell line. The KD for these antibodies was also determined for cyno CD33 expressed as a recombinant protein in a HEK293F cell line (Table 7).

human CD33 [1] = molecular target: T2, human CD33 (human, UniProt P20138 18-364); assay: flow cytometry on HEL 92.1.7 cells; competition with 1 nM AlexaFluor-647 m2H12 (methods paragraph 148)
T2 construct: Endogenous on HL-60 and HEL 92.1.7 AML cells, or recombinant on transfected HEK293F cells; The signal peptide is stated as amino acids 1-17; also called hCD33
Description: as §1, §2

human CD33 [2] = molecular target: T2, human CD33; assay: flow cytometry on HEK293F cells expressing human CD33; competition with 1 nM AlexaFluor-647 m2H12 (methods paragraph 148)
Description: as §1, §2

human CD33 [3] = molecular target: T2, human CD33; assay: flow cytometry on HEL 92.1.7 AML cells; competition with 1 nM AlexaFluor-647 m2H12 (methods paragraph 148)
Description: as §1, §2

T1 sequence (chain, as listed by the source limits assumed): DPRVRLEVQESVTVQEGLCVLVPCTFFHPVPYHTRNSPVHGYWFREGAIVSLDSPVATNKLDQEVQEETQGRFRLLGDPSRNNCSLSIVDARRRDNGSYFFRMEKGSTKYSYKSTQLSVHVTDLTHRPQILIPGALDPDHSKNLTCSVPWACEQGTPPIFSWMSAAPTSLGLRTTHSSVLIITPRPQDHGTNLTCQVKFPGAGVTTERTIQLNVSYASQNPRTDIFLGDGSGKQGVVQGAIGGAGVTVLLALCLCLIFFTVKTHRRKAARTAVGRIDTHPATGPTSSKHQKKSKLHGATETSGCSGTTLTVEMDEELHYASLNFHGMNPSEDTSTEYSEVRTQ
T2 sequence (P20138 18-364): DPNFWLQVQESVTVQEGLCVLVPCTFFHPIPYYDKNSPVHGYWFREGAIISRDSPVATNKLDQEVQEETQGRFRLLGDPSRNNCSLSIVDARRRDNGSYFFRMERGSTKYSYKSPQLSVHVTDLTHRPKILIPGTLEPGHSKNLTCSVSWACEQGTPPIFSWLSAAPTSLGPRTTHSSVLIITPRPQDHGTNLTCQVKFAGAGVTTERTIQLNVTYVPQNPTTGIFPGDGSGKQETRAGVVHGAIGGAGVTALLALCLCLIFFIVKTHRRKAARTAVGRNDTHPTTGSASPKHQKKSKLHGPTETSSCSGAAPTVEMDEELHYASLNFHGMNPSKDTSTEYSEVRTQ

Binder	EC50 (cynomolgus CD33)	EC50 (human CD33 [1])	EC50 (human CD33 [2])	EC50 (human CD33 [3])
cHLA (antibody, V domains shown, Hybrid of the chimeric heavy chain (murine VH, human constant region) and humanized light chain LA) VH: QVQLQQSGPELVRPGTFVKISCKASGYTFTNYDINWVNQRPGQGLEWIGWIYPGDGSTKYNEKFKAKATLTADKSSSTAYLQLNNLTSENSAVYFCASGYEDAMDYWGQGTSVTVSS VL: DIQMTQSPSSLSASVGDRVTITCKASQDINSYLSWFQQKPGKAPKSLIYRANRLVDGVPSRFSGSGSGTDFTLTISSLQPEDFATYYCLQYDEFPLTFGGGTKVEIK				2.61 nM
c2H12 (antibody, V domains shown, also called chimeric 2H12) VH: QVQLQQSGPELVRPGTFVKISCKASGYTFTNYDINWVNQRPGQGLEWIGWIYPGDGSTKYNEKFKAKATLTADKSSSTAYLQLNNLTSENSAVYFCASGYEDAMDYWGQGTSVTVSS VL: DIKMTQSPSSMYASLGERVIINCKASQDINSYLSWFQQKPGKSPKTLIYRANRLVDGVPSRFSGSGSGQDYSLTISSLEYEDMGIYYCLQYDEFPLTFGAGTKLELK				1.97 nM
HCcL (antibody, V domains shown, Hybrid of humanized heavy chain HC and the chimeric light chain (murine VL, human constant region)) VH: QVQLVQSGAEVKKPGASVKVSCKASGYTFTNYDINWVRQAPGQGLEWMGWIYPGDGSTKYNEKFKARVTMTTDTSTSTAYMELRSLRSDDTAVYYCASGYEDAMDYWGQGTTVTVSS VL: DIKMTQSPSSMYASLGERVIINCKASQDINSYLSWFQQKPGKSPKTLIYRANRLVDGVPSRFSGSGSGQDYSLTISSLEYEDMGIYYCLQYDEFPLTFGAGTKLELK				2.95 nM
cHLC (antibody, V domains shown, Hybrid of the chimeric heavy chain (murine VH, human constant region) and humanized light chain LC) VH: QVQLQQSGPELVRPGTFVKISCKASGYTFTNYDINWVNQRPGQGLEWIGWIYPGDGSTKYNEKFKAKATLTADKSSSTAYLQLNNLTSENSAVYFCASGYEDAMDYWGQGTSVTVSS VL: DIQMTQSPSSLSASVGDRVTITCKASQDINSYLSWFQQKPGKAPKTLIYRANRLVDGVPSRFSGSGSGTDFTLTISSLQPEDFATYYCLQYDEFPLTFGGGTKVEIK				2.49 nM
HIcL (antibody, V domains shown, Hybrid of humanized heavy chain HI and the chimeric light chain (murine VL, human constant region)) VH: QVQLVQSGAEVKKPGASVKVSCKASGYTFTNYDINWVRQAPGQGLEWIGWIYPGDGSTKYNEKFKAKATLTADTSTSTAYMELRSLRSDDTAVYYCASGYEDAMDYWGQGTTVTVSS VL: DIKMTQSPSSMYASLGERVIINCKASQDINSYLSWFQQKPGKSPKTLIYRANRLVDGVPSRFSGSGSGQDYSLTISSLEYEDMGIYYCLQYDEFPLTFGAGTKLELK				2.56 nM
cHLB (antibody, V domains shown, Hybrid of the chimeric heavy chain (murine VH, human constant region) and humanized light chain LB) VH: QVQLQQSGPELVRPGTFVKISCKASGYTFTNYDINWVNQRPGQGLEWIGWIYPGDGSTKYNEKFKAKATLTADKSSSTAYLQLNNLTSENSAVYFCASGYEDAMDYWGQGTSVTVSS VL: DIKMTQSPSSLSASVGDRVTITCKASQDINSYLSWFQQKPGKAPKSLIYRANRLVDGVPSRFSGSGSGTDFTLTISSLQPEDFATYYCLQYDEFPLTFGGGTKVEIK				2.53 nM
HILE (antibody, V domains shown, Humanized antibody, heavy chain HI with light chain LE) VH: QVQLVQSGAEVKKPGASVKVSCKASGYTFTNYDINWVRQAPGQGLEWIGWIYPGDGSTKYNEKFKAKATLTADTSTSTAYMELRSLRSDDTAVYYCASGYEDAMDYWGQGTTVTVSS VL: DIQMTQSPSSLSASVGDRVTITCKASQDINSYLSWFQQKPGKAPKSLIYRANRLVDGVPSRFSGSGSGTDYTLTISSLQPEDFATYYCLQYDEFPLTFGGGTKVEIK	64.8 nM	11.1 nM	19.3 nM	
HCLA (antibody, V domains shown, Humanized antibody, heavy chain HC with light chain LA) VH: QVQLVQSGAEVKKPGASVKVSCKASGYTFTNYDINWVRQAPGQGLEWMGWIYPGDGSTKYNEKFKARVTMTTDTSTSTAYMELRSLRSDDTAVYYCASGYEDAMDYWGQGTTVTVSS VL: DIQMTQSPSSLSASVGDRVTITCKASQDINSYLSWFQQKPGKAPKSLIYRANRLVDGVPSRFSGSGSGTDFTLTISSLQPEDFATYYCLQYDEFPLTFGGGTKVEIK	141 nM	13.6 nM	31.7 nM	
HCLE (antibody, V domains shown, Humanized antibody, heavy chain HC with light chain LE) VH: QVQLVQSGAEVKKPGASVKVSCKASGYTFTNYDINWVRQAPGQGLEWMGWIYPGDGSTKYNEKFKARVTMTTDTSTSTAYMELRSLRSDDTAVYYCASGYEDAMDYWGQGTTVTVSS VL: DIQMTQSPSSLSASVGDRVTITCKASQDINSYLSWFQQKPGKAPKSLIYRANRLVDGVPSRFSGSGSGTDYTLTISSLQPEDFATYYCLQYDEFPLTFGGGTKVEIK	129 nM	12.8 nM	22.2 nM	
HILA (antibody, V domains shown, Humanized antibody, heavy chain HI with light chain LA) VH: QVQLVQSGAEVKKPGASVKVSCKASGYTFTNYDINWVRQAPGQGLEWIGWIYPGDGSTKYNEKFKAKATLTADTSTSTAYMELRSLRSDDTAVYYCASGYEDAMDYWGQGTTVTVSS VL: DIQMTQSPSSLSASVGDRVTITCKASQDINSYLSWFQQKPGKAPKSLIYRANRLVDGVPSRFSGSGSGTDFTLTISSLQPEDFATYYCLQYDEFPLTFGGGTKVEIK	126 nM	12.2 nM	26.8 nM	
HCLG (antibody, V domains shown, Humanized antibody, heavy chain HC with light chain LG) VH: QVQLVQSGAEVKKPGASVKVSCKASGYTFTNYDINWVRQAPGQGLEWMGWIYPGDGSTKYNEKFKARVTMTTDTSTSTAYMELRSLRSDDTAVYYCASGYEDAMDYWGQGTTVTVSS VL: DIQMTQSPSSLSASVGDRVTINCKASQDINSYLSWFQQKPGKAPKTLIYRANRLVDGVPSRFSGSGSGQDYTLTISSLQPEDFATYYCLQYDEFPLTFGGGTKVEIK	63 nM	7.9 nM	17.9 nM	

More lines, now with the values ahead:

EC50 (cynomolgus CD33)	EC50 (human CD33 [1])	EC50 (human CD33 [2])	EC50 (human CD33 [3])	Binder
30.6 nM	5.4 nM	11.6 nM	2.38 nM	murine mAb 2H12 (antibody, V domains shown, Murine monoclonal antibody from Balb/c mice; also called m2H12; murine 2H12 antibody) VH: QVQLQQSGPELVRPGTFVKISCKASGYTFTNYDINWVNQRPGQGLEWIGWIYPGDGSTKYNEKFKAKATLTADKSSSTAYLQLNNLTSENSAVYFCASGYEDAMDYWGQGTSVTVSS VL: DIKMTQSPSSMYASLGERVIINCKASQDINSYLSWFQQKPGKSPKTLIYRANRLVDGVPSRFSGSGSGQDYSLTISSLEYEDMGIYYCLQYDEFPLTFGAGTKLELK
			2.02 nM	cHLF (antibody, V domains shown, Hybrid of the chimeric heavy chain (murine VH, human constant region) and humanized light chain LF) VH: QVQLQQSGPELVRPGTFVKISCKASGYTFTNYDINWVNQRPGQGLEWIGWIYPGDGSTKYNEKFKAKATLTADKSSSTAYLQLNNLTSENSAVYFCASGYEDAMDYWGQGTSVTVSS VL: DIQMTQSPSSLSASVGDRVIINCKASQDINSYLSWFQQKPGKAPKSLIYRANRLVDGVPSRFSGSGSGTDFTLTISSLQPEDFATYYCLQYDEFPLTFGGGTKVEIK
			1.95 nM	cHLE (antibody, V domains shown, Hybrid of the chimeric heavy chain (murine VH, human constant region) and humanized light chain LE) VH: QVQLQQSGPELVRPGTFVKISCKASGYTFTNYDINWVNQRPGQGLEWIGWIYPGDGSTKYNEKFKAKATLTADKSSSTAYLQLNNLTSENSAVYFCASGYEDAMDYWGQGTSVTVSS VL: DIQMTQSPSSLSASVGDRVTITCKASQDINSYLSWFQQKPGKAPKSLIYRANRLVDGVPSRFSGSGSGTDYTLTISSLQPEDFATYYCLQYDEFPLTFGGGTKVEIK
			1.91 nM	cHLG (antibody, V domains shown, Hybrid of the chimeric heavy chain (murine VH, human constant region) and humanized light chain LG) VH: QVQLQQSGPELVRPGTFVKISCKASGYTFTNYDINWVNQRPGQGLEWIGWIYPGDGSTKYNEKFKAKATLTADKSSSTAYLQLNNLTSENSAVYFCASGYEDAMDYWGQGTSVTVSS VL: DIQMTQSPSSLSASVGDRVTINCKASQDINSYLSWFQQKPGKAPKTLIYRANRLVDGVPSRFSGSGSGQDYTLTISSLQPEDFATYYCLQYDEFPLTFGGGTKVEIK
			2.48 nM	cHLD (antibody, V domains shown, Hybrid of the chimeric heavy chain (murine VH, human constant region) and humanized light chain LD) VH: QVQLQQSGPELVRPGTFVKISCKASGYTFTNYDINWVNQRPGQGLEWIGWIYPGDGSTKYNEKFKAKATLTADKSSSTAYLQLNNLTSENSAVYFCASGYEDAMDYWGQGTSVTVSS VL: DIQMTQSPSSLSASVGDRVTITCKASQDINSYLSWFQQKPGKAPKSLIYRANRLVDGVPSRFSGSGSGQDFTLTISSLQPEDFATYYCLQYDEFPLTFGGGTKVEIK
39.9 nM	7.8 nM	14.4 nM	3.39 nM	h2H12 antibody (2H12 HILG) (antibody, V domains shown, also called humanized 2H12; human 2H12 antibody) VH: QVQLVQSGAEVKKPGASVKVSCKASGYTFTNYDINWVRQAPGQGLEWIGWIYPGDGSTKYNEKFKAKATLTADTSTSTAYMELRSLRSDDTAVYYCASGYEDAMDYWGQGTTVTVSS VL: DIQMTQSPSSLSASVGDRVTINCKASQDINSYLSWFQQKPGKAPKTLIYRANRLVDGVPSRFSGSGSGQDYTLTISSLQPEDFATYYCLQYDEFPLTFGGGTKVEIK
